# The supplement of paper PMC10065799, “High-throughput profiling of sequence recognition by tyrosine kinases and SH2 domains using bacterial peptide display” (eLife, 2023)
# Test system: c-Src
# Test: phosphorylation enrichment, bacterial display (enrichment ratio); higher = better substrate or ligand; peptides without Tyr show the background
# 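Wherever SH2 binding enrichment of the phosphorylated peptide, bacterial display is given: peptide library displayed on the E. coli surface as eCPX fusions, selected cells deep-sequenced, score is each peptide's frequency after selection divided by its frequency in the input.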
# 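Wherever phosphorylation enrichment, bacterial display is given: 11-residue human phosphosite peptides and single-mutation variants displayed on the E. coli surface, counted by deep sequencing, each peptide's frequency after selection divided by its frequency in the unselected input library; frequency after pTyr selection over input frequency; kinase dosed for 20-30% of maximal phosphorylation in three min.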
row,Sequence,phosphorylation enrichment
1,VEKEKYVSYIS [JMJD1C_Y596_M591V],0.5
2,FQCKHYACIRQ [TIMP3_Y182_S179C_YF],0.393
3,SDPIIYTLENI [ADGRE1_Y534],5.13
4,KANEFYPVVLI [ADAMTS18_Y765_YF],0.506
5,PAVGIYNGNIN [CDCP1_Y707_D709G],1.64
6,KVGPGYLGSGG [RET_Y826],0.368
7,KYLENYYDLEK [MMP3_Y41_K45E],2.2
8,TENAGYFFRVS,0.41
9,EVESPYEVHDY [GIGYF2_Y1168],4.25
10,IVAREYFSKAD [CAMK2B_Y107_E110K_YF],0.342
11,QQLQGYIPSNY [FRK_Y99],0.382
12,NFFDLYGGEKF [PTPN11_Y66_D61N_YF],2.73
13,LLPNAYIFVVQ [L1CAM_Y418_A415P_YF],0.481
14,GRRNTCYASIA [ACADM_Y352_Y352C],0.495
15,WIPNQYPIISE [NOG_Y222_I220N],0.636
16,TISPYYRQSLF [CRYAA_Y48],0.492
17,EILLSDLRTGF [TGM1_Y365_Y365D_YF],0.418

row,Sequence,phosphorylation enrichment
1,PLCPDYQEPSR [DDR2_Y481_R478C],0.61
2,VLSIDYYFPPQ [AR_Y552_P549S],2.17
3,FSKTQYNQVPR [CXADR_Y318_S323R_YF],0.484
4,RAIELCNDKEK [OTULIN_Y244_Y244C],0.481
5,FFVVRYCWLRR [MPZ_Y181_YF],0.5
6,NLNGKCNKPRA [ANGPTL3_Y417_Y417C],0.393
7,IPGGIYNADLN [CST4_Y35_D36N],1.36
8,CTTIHYNYLCN [TP53_Y234_M237L],0.394
9,TYGQVYKGRHV [TNIK_Y40],6.62
10,SIKDKYVTALY [KCNH2_Y611],0.575
11,TPRNTYKMTSV [MKI67_Y849_L854V],0.502
12,ATVRPYRPFII [LRP5_Y1528_A1525V_YF],0.493
13,TPRNTYKMTSL [MKI67_Y849],0.459
14,QDGFSYPSRQM [LDLR_Y847_YF],0.398
15,RRESPYGGGGG [FUS_Y526_R524S],0.519
16,DLDLTSIFPNI [PTEN_Y27_Y27S_YF],0.358

# Biological target: Grb2 SH2 (UniProt P62993)
# Test: SH2 binding enrichment of the phosphorylated peptide, bacterial display (enrichment ratio); higher = better substrate or ligand; peptides without Tyr show the background
# Chain of Grb2 SH2 (P62993 whole entry, looked up): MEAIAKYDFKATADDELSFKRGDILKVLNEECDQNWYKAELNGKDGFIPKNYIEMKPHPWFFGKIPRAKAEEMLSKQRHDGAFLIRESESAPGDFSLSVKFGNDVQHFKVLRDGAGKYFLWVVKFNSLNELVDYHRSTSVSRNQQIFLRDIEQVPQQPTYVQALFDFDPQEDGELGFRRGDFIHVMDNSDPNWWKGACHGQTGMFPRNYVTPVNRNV
row,Sequence,SH2 binding enrichment
1,VEKEKYVSYIS [JMJD1C_Y596_M591V],0.978
2,FQCKHYACIRQ [TIMP3_Y182_S179C_YF],1.74
3,SDPIIYTLENI [ADGRE1_Y534],0.936
4,KANEFYPVVLI [ADAMTS18_Y765_YF],0.663
5,PAVGIYNGNIN [CDCP1_Y707_D709G],0.696
6,KVGPGYLGSGG [RET_Y826],0.685
7,KYLENYYDLEK [MMP3_Y41_K45E],0.702
8,TENAGYFFRVS,0.724
9,EVESPYEVHDY [GIGYF2_Y1168],0.86
10,IVAREYFSKAD [CAMK2B_Y107_E110K_YF],0.787
11,QQLQGYIPSNY [FRK_Y99],0.944
12,NFFDLYGGEKF [PTPN11_Y66_D61N_YF],1.02
13,LLPNAYIFVVQ [L1CAM_Y418_A415P_YF],0.65
14,GRRNTCYASIA [ACADM_Y352_Y352C],0.972
15,WIPNQYPIISE [NOG_Y222_I220N],0.788
16,TISPYYRQSLF [CRYAA_Y48],0.783
17,EILLSDLRTGF [TGM1_Y365_Y365D_YF],0.7

row,Sequence,SH2 binding enrichment
1,PLCPDYQEPSR [DDR2_Y481_R478C],0.86
2,VLSIDYYFPPQ [AR_Y552_P549S],1.47
3,FSKTQYNQVPR [CXADR_Y318_S323R_YF],1.16
4,RAIELCNDKEK [OTULIN_Y244_Y244C],1
5,FFVVRYCWLRR [MPZ_Y181_YF],0.604
6,NLNGKCNKPRA [ANGPTL3_Y417_Y417C],1.23
7,IPGGIYNADLN [CST4_Y35_D36N],0.943
8,CTTIHYNYLCN [TP53_Y234_M237L],1.45
9,TYGQVYKGRHV [TNIK_Y40],0.974
10,SIKDKYVTALY [KCNH2_Y611],0.747
11,TPRNTYKMTSV [MKI67_Y849_L854V],0.844
12,ATVRPYRPFII [LRP5_Y1528_A1525V_YF],0.953
13,TPRNTYKMTSL [MKI67_Y849],1.36
14,QDGFSYPSRQM [LDLR_Y847_YF],1.48
15,RRESPYGGGGG [FUS_Y526_R524S],0.907
16,DLDLTSIFPNI [PTEN_Y27_Y27S_YF],0.722

# Biological target: SHP2-C SH2
# Test: as above
row,Sequence,SH2 binding enrichment
1,VEKEKYVSYIS [JMJD1C_Y596_M591V],0.748
2,FQCKHYACIRQ [TIMP3_Y182_S179C_YF],3.79
3,SDPIIYTLENI [ADGRE1_Y534],0.777
4,KANEFYPVVLI [ADAMTS18_Y765_YF],0.421
5,PAVGIYNGNIN [CDCP1_Y707_D709G],0.708
6,KVGPGYLGSGG [RET_Y826],0.583
7,KYLENYYDLEK [MMP3_Y41_K45E],0.736
8,TENAGYFFRVS,0.583
9,EVESPYEVHDY [GIGYF2_Y1168],0.599
10,IVAREYFSKAD [CAMK2B_Y107_E110K_YF],0.604
11,QQLQGYIPSNY [FRK_Y99],0.477
12,NFFDLYGGEKF [PTPN11_Y66_D61N_YF],0.827
13,LLPNAYIFVVQ [L1CAM_Y418_A415P_YF],0.508
14,GRRNTCYASIA [ACADM_Y352_Y352C],7.14
15,WIPNQYPIISE [NOG_Y222_I220N],0.827
16,TISPYYRQSLF [CRYAA_Y48],0.767
17,EILLSDLRTGF [TGM1_Y365_Y365D_YF],0.567

row,Sequence,SH2 binding enrichment
1,PLCPDYQEPSR [DDR2_Y481_R478C],0.781
2,VLSIDYYFPPQ [AR_Y552_P549S],1.55
3,FSKTQYNQVPR [CXADR_Y318_S323R_YF],0.899
4,RAIELCNDKEK [OTULIN_Y244_Y244C],0.762
5,FFVVRYCWLRR [MPZ_Y181_YF],0.414
6,NLNGKCNKPRA [ANGPTL3_Y417_Y417C],1.24
7,IPGGIYNADLN [CST4_Y35_D36N],0.646
8,CTTIHYNYLCN [TP53_Y234_M237L],4.87
9,TYGQVYKGRHV [TNIK_Y40],0.964
10,SIKDKYVTALY [KCNH2_Y611],0.581
11,TPRNTYKMTSV [MKI67_Y849_L854V],0.525
12,ATVRPYRPFII [LRP5_Y1528_A1525V_YF],0.79
13,TPRNTYKMTSL [MKI67_Y849],0.891
14,QDGFSYPSRQM [LDLR_Y847_YF],0.725
15,RRESPYGGGGG [FUS_Y526_R524S],0.362
16,DLDLTSIFPNI [PTEN_Y27_Y27S_YF],0.524

# Biological target: c-Src SH2
# Test: as above
row,Sequence,SH2 binding enrichment
1,VEKEKYVSYIS [JMJD1C_Y596_M591V],0.507
2,FQCKHYACIRQ [TIMP3_Y182_S179C_YF],2.38
3,SDPIIYTLENI [ADGRE1_Y534],0.519
4,KANEFYPVVLI [ADAMTS18_Y765_YF],0.388
5,PAVGIYNGNIN [CDCP1_Y707_D709G],0.44
6,KVGPGYLGSGG [RET_Y826],0.44
7,KYLENYYDLEK [MMP3_Y41_K45E],1.08
8,TENAGYFFRVS,0.466
9,EVESPYEVHDY [GIGYF2_Y1168],0.485
10,IVAREYFSKAD [CAMK2B_Y107_E110K_YF],0.473
11,QQLQGYIPSNY [FRK_Y99],0.333
12,NFFDLYGGEKF [PTPN11_Y66_D61N_YF],0.641
13,LLPNAYIFVVQ [L1CAM_Y418_A415P_YF],0.47
14,GRRNTCYASIA [ACADM_Y352_Y352C],3.58
15,WIPNQYPIISE [NOG_Y222_I220N],0.605
16,TISPYYRQSLF [CRYAA_Y48],0.678
17,EILLSDLRTGF [TGM1_Y365_Y365D_YF],0.417

row,Sequence,SH2 binding enrichment
1,PLCPDYQEPSR [DDR2_Y481_R478C],0.786
2,VLSIDYYFPPQ [AR_Y552_P549S],1.34
3,FSKTQYNQVPR [CXADR_Y318_S323R_YF],0.64
4,RAIELCNDKEK [OTULIN_Y244_Y244C],0.753
5,FFVVRYCWLRR [MPZ_Y181_YF],0.499
6,NLNGKCNKPRA [ANGPTL3_Y417_Y417C],0.496
7,IPGGIYNADLN [CST4_Y35_D36N],0.635
8,CTTIHYNYLCN [TP53_Y234_M237L],4.93
9,TYGQVYKGRHV [TNIK_Y40],0.676
10,SIKDKYVTALY [KCNH2_Y611],0.437
11,TPRNTYKMTSV [MKI67_Y849_L854V],0.452
12,ATVRPYRPFII [LRP5_Y1528_A1525V_YF],0.616
13,TPRNTYKMTSL [MKI67_Y849],0.805
14,QDGFSYPSRQM [LDLR_Y847_YF],0.66
15,RRESPYGGGGG [FUS_Y526_R524S],0.566
16,DLDLTSIFPNI [PTEN_Y27_Y27S_YF],0.48
